In publication PMC4098917, “Assembly of the Type Two Secretion System in Aeromonas hydrophila Involves Direct Interaction between the Periplasmic Domains of the Assembly Factor ExeB and the Secretin ExeD” (PLoS ONE, 2014):

Legend:
[1] = biological target: dimerization domain (40 aa) of the Gal4 transcriptional activator protein (pBT-LGF2); experiment: two-hybrid; bacterial two-hybrid (BacterioMatch, E. coli BM2H; bait pBT, target pTRG); minimum inhibitory concentration of carbenicillin (0-12.8 mg/mL), 0.1 mM IPTG, overnight at 30°C
[2] = biological target: T1, periplasmic domain of ExeB (bacterial two-hybrid fusion) (A. hydrophila, UniProt P45755 58-226); experiment: two-hybrid; bacterial two-hybrid (BacterioMatch, E. coli BM2H; bait pBT, target pTRG); β-galactosidase activity of permeabilized cells, 0.02 mM IPTG; settings: partners not purified
T1 construct: periplasmic domain of ExeB, A. hydrophila, amplified from pGAD424-P-ExeB; Stood in pBT and in pTRG; also called P-ExeB; source: bacterial two-hybrid fusion (E. coli BM2H)
T1 sequence: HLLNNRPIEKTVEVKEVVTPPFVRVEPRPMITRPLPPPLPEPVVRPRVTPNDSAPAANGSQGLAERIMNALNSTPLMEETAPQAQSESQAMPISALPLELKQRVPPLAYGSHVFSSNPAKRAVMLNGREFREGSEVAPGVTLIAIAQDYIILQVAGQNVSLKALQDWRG

[3] = biological target: T2, N-His-tagged periplasmic domain of ExeD, purified (A. hydrophila, UniProt P31780 26-355); experiment: fluorescence polarisation; steady state rotational anisotropy; F-labeled P-ExeB 50 nM, titration of P-ExeD 0-4000 nM, RT buffer, 21°C; apparent Kd from a rectangular hyperbola; settings: both partners purified
T2 construct: periplasmic domain of ExeD, A. hydrophila, in NdeI/XhoI of pET30a; the printed primers carry no His codons and no stop codon, so the tag may be the vector's C-terminal one (my surmise); also called P-ExeD; N-His-tagged-P-ExeD; source: E. coli BL21, purified (Ni-NTA, Resource S ion exchange)
T2 sequence: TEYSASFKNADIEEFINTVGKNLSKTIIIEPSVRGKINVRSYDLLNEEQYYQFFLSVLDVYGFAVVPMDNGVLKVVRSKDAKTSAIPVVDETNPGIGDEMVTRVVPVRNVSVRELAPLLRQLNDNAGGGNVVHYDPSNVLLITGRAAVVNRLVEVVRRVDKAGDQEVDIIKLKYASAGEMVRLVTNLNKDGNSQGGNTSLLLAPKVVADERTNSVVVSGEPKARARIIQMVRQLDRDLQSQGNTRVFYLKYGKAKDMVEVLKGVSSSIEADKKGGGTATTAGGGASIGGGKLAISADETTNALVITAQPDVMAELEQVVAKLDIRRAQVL

## domain (90aa) of the mutant form of the Gal11 protein (pTRG-Gal11P) (domain or fragment)
[1]
  MIC of carbenicillin: 12.8 mg/mL

B1: periplasmic domain of ExeD (bacterial two-hybrid fusion) (domain or fragment)
chain: T2 sequence
notes: periplasmic domain of ExeD, A. hydrophila, amplified from pGAD424-P-ExeD; Stood in pTRG and in pBT; also called P-ExeD; full-length P-ExeD; source: bacterial two-hybrid fusion (E. coli BM2H)
[2]
  fold β-galactosidase activity over cells with the empty vectors: > 11 fold

B2: fluorescein-EX labeled N-His-tagged periplasmic domain of ExeB (domain or fragment)
chain: T1 sequence
modifications: fluorescein (Fluorescein-EX Protein Labeling kit), ~0.8 moles of dye per mole of protein
notes: periplasmic domain of ExeB, A. hydrophila, in pET30a; Same construct as m27, purified and labelled; also called F-labeled P-ExeB; fluorescein-EX labeled P-ExeB; source: E. coli BL21, purified (Ni-NTA, Resource S ion exchange)
[3]
  Kd: 1190 ± 160 nM
